B1: Ubc2 (yeast) (enzyme, Saccharomyces cerevisiae, UniProt P06104 1-172, looked up)
chain: MSTPARRRLMRDFKRMKEDAPPGVSASPLPDNVMVWNAMIIGPADTPYEDGTFRLLLEFDEEYPNKPPHVKFLSEMFHPNVYANGEICLDILQNRWTPTYDVASILTSIQSLFNDPNPASPANVEAATLFKDHKSQYVKRVKETVEKSWEDDMDDMDDDDDDDDDDDDDEAD

Assays:
[1] = biological target: B1; assay: ITC
[2] = biological target: Ubr1 (yeast, FLAG-tagged) (Saccharomyces cerevisiae, UniProt P19812 1-1950); assay: cryo-EM structure
Chain of Ubr1 (yeast, FLAG-tagged) (P19812 whole entry): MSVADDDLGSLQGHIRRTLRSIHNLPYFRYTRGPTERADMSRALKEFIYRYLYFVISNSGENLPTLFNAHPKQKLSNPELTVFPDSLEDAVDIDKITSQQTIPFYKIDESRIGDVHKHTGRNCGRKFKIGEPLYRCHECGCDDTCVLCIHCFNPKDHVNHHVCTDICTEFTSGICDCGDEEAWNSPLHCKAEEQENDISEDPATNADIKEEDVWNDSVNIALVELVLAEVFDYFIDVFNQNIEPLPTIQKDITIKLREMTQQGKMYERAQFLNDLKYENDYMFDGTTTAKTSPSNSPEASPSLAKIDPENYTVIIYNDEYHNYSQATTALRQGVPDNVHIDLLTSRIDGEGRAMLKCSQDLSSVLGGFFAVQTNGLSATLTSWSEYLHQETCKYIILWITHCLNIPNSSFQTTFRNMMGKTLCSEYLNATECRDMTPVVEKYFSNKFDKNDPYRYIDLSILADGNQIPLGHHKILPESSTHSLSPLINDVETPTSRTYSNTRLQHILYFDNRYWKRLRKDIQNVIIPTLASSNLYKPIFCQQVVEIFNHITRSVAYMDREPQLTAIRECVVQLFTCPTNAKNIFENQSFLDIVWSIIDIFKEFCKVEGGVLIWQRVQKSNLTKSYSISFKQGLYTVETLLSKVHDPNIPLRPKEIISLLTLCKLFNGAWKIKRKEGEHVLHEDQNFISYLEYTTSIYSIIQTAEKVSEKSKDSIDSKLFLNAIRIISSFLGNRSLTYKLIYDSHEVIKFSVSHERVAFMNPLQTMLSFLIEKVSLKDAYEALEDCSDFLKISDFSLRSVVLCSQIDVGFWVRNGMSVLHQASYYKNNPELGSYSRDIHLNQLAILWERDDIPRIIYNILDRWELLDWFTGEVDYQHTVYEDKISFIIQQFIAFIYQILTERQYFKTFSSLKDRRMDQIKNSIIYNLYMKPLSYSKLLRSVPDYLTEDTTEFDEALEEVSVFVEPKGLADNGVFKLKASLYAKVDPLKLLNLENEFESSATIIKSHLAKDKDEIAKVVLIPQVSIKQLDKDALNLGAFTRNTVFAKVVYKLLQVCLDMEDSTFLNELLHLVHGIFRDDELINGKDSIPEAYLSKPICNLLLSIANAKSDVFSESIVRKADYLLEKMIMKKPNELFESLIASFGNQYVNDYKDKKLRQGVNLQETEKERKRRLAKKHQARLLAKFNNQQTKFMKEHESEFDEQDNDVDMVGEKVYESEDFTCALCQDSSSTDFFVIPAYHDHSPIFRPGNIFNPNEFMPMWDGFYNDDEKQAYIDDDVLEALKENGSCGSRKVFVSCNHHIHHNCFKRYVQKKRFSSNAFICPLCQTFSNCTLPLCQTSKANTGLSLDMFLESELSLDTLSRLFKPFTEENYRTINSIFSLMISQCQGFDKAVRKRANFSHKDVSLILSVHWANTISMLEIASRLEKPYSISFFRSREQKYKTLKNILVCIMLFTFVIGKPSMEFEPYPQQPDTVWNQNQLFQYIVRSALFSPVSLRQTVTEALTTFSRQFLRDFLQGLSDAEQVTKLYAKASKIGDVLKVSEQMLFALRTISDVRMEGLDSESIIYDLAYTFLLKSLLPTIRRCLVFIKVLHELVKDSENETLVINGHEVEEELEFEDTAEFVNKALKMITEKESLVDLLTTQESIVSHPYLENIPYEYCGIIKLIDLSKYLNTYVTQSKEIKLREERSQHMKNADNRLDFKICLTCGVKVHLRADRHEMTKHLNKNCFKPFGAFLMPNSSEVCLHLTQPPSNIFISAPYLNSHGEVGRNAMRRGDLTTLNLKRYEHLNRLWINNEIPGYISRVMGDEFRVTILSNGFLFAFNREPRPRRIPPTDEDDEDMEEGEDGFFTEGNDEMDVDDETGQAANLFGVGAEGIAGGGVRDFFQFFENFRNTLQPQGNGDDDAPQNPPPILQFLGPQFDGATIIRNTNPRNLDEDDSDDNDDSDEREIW

Row | Kd [1] | binding result [2] | Binder
1 | 143 ± 45 nM | – | KERKRRLAKKHQARLLAKFNNQQTKFMKEHESEFDE (peptide, UniProt P19812 1165-1200, looked up) [U2BR peptide (Ubr1 1165-1200)]
2 | – | binds | B1

Source: article doi:10.1101/2021.04.12.439291 (bioRxiv, 2021)
